B4: SinR^S43A (natural protein, B. subtilis)
chain: MIGQRIKQYRKEKGYSLSELAEKAGVAKSYLSSIERNLQTNPAIQFLEKVSAVLDVSVHTLLDEKHETEYDGQLDSEWEKLVRDAMTSGVSKKQFREFLDYQKWRKSQKEE
notes: SinR, Bacillus subtilis, with S43A; allele amplified from chromosomal DNA of the suppressor mutant with primer pair G8/G10, cloned in pET24a (NdeI/EcoRI); Spontaneous suppressor allele isolated in the laboratory from a ymdB mutant; source: E. coli BL21(DE3), purified (heparin Sepharose, size exclusion)
B5: SinR^A85T (natural protein, B. subtilis)
chain: MIGQRIKQYRKEKGYSLSELAEKAGVAKSYLSSIERNLQTNPSIQFLEKVSAVLDVSVHTLLDEKHETEYDGQLDSEWEKLVRDTMTSGVSKKQFREFLDYQKWRKSQKEE
notes: SinR, Bacillus subtilis, with A85T; allele amplified from chromosomal DNA of the suppressor mutant with primer pair G8/G10, cloned in pET24a (NdeI/EcoRI); Spontaneous suppressor allele isolated in the laboratory from a ymdB mutant; source: E. coli BL21(DE3), purified (heparin Sepharose, size exclusion)
B6: SinR^W104L (natural protein, B. subtilis)
chain: MIGQRIKQYRKEKGYSLSELAEKAGVAKSYLSSIERNLQTNPSIQFLEKVSAVLDVSVHTLLDEKHETEYDGQLDSEWEKLVRDAMTSGVSKKQFREFLDYQKLRKSQKEE
notes: SinR, Bacillus subtilis, with W104L; allele amplified from chromosomal DNA of the suppressor mutant with primer pair G8/G10, cloned in pET24a (NdeI/EcoRI); Spontaneous suppressor allele isolated in the laboratory from a ymdB mutant; source: E. coli BL21(DE3), purified (heparin Sepharose, size exclusion)
B7: SinR^W104R (natural protein, B. subtilis)
chain: MIGQRIKQYRKEKGYSLSELAEKAGVAKSYLSSIERNLQTNPSIQFLEKVSAVLDVSVHTLLDEKHETEYDGQLDSEWEKLVRDAMTSGVSKKQFREFLDYQKRRKSQKEE
notes: SinR, Bacillus subtilis, with W104R; allele amplified from chromosomal DNA of the suppressor mutant with primer pair G8/G10, cloned in pET24a (NdeI/EcoRI); Spontaneous suppressor allele isolated in the laboratory from a ymdB mutant; source: E. coli BL21(DE3), purified (heparin Sepharose, size exclusion)

Experiments:
[1] = target: the molecule itself; assay: SEC-MALS; SinR proteins at 5 mg/ml (equivalent to 400 µM), 150 µl on Superdex 200 Increase 10/300 GL, 50 mM Tris-HCl pH 8.0, 250 mM NaCl, 0.5 ml/min; refractive index at 25°C
SinR^S43A = target: B4; assay: fluorescence polarisation; displacement of fluorescein-labelled 21-bp operator DNA (10 nM) from 5 µM SinR by SinI titrated from 50 µM to 10 nM; 10 mM Tris-HCl pH 8.0, 100 mM NaCl, 1 mM EDTA; qualitative; settings: both partners purified
SinR^A85T = target: B5; assay: as above; settings: both partners purified
SinR^W104L = target: B6; assay: as above; settings: both partners purified
SinR^W104R = target: B7; assay: as above; settings: both partners purified
SinR W104R = target: T1, SinR W104R (Bacillus subtilis, UniProt P06533 1-111, W104R); assay: fluorescence polarization; 10 mM Tris-HCl pH 8.0, 100 mM NaCl, 1 mM EDTA; 10 nM labeled duplex, SinR diluted from 20 uM; temperature not stated; settings: protein: recombinant; tags: none (pET24a, native stop codon in primer G10); chain copies: 2; label: 5'-fluorescein (FAM) on strand 1; blunt
T1 sequence: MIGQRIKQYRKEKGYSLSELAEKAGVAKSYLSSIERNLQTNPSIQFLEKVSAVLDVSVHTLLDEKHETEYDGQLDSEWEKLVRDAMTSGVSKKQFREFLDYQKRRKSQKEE

SinR A85T = target: T2, SinR A85T (Bacillus subtilis, UniProt P06533 1-111, A85T); assay: as above; settings: protein: recombinant; tags: none (pET24a, native stop codon in primer G10); chain copies: 4; label: 5'-fluorescein (FAM) on strand 1; blunt
T2 sequence: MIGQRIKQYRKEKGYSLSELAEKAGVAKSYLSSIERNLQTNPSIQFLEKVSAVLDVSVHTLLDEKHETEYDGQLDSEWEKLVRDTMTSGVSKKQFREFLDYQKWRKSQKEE

SinR S43A = target: T3, SinR S43A (Bacillus subtilis, UniProt P06533 1-111, S43A); assay: as above; settings: protein: recombinant; tags: none (pET24a, native stop codon in primer G10); chain copies: 4; label: 5'-fluorescein (FAM) on strand 1; blunt
T3 sequence: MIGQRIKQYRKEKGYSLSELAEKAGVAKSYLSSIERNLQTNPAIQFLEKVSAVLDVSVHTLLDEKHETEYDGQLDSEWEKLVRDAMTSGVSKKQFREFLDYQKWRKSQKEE

SinR W104L = target: T4, SinR W104L (Bacillus subtilis, UniProt P06533 1-111, W104L); assay: as above; settings: protein: recombinant; tags: none (pET24a, native stop codon in primer G10); chain copies: 2; label: 5'-fluorescein (FAM) on strand 1; blunt
T4 sequence: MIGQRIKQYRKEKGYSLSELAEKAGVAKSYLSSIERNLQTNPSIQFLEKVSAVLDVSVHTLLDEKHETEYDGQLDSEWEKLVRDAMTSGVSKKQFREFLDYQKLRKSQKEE

SinR wild type = target: T5, SinR wild type (Bacillus subtilis, UniProt P06533 1-111); assay: as above; settings: protein: recombinant; tags: none (pET24a, native stop codon in primer G10); chain copies: 4; label: 5'-fluorescein (FAM) on strand 1; blunt
T5 sequence: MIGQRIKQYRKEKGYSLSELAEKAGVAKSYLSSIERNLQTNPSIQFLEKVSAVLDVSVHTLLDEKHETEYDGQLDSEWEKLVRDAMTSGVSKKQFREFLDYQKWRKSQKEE

SinR K28T = target: T6, SinR K28T (Bacillus subtilis, UniProt P06533 1-111, K28T); assay: fluorescence polarization; no polarization change up to 20 uM protein; 10 mM Tris-HCl pH 8.0, 100 mM NaCl, 1 mM EDTA; 10 nM labeled duplex, SinR diluted from 20 uM; temperature not stated; settings: protein: recombinant; tags: none (pET24a, native stop codon in primer G10); chain copies: 4; label: 5'-fluorescein (FAM) on strand 1; blunt
T6 sequence: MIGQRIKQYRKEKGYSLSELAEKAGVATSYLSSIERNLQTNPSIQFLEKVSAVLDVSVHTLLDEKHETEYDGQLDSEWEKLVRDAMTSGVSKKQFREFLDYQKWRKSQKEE

B1: SinR wild type (natural protein, B. subtilis)
chain: MIGQRIKQYRKEKGYSLSELAEKAGVAKSYLSSIERNLQTNPSIQFLEKVSAVLDVSVHTLLDEKHETEYDGQLDSEWEKLVRDAMTSGVSKKQFREFLDYQKWRKSQKEE
notes: SinR, master regulator of biofilm formation, Bacillus subtilis; sinR allele amplified from chromosomal DNA with primer pair G8/G10 and cloned between NdeI and EcoRI of pET24a; monomer printed as 12.85 kDa; The printed monomer mass of 12.85 kDa fits the whole protein of 111 residues; No tag is named and purification was by heparin and size exclusion; also called wild-type SinR; source: E. coli …
Q: B1 was tested. Which “stoichiometry N” value [1] did it give?
A: 4

B2: SinI (natural protein, B. subtilis, UniProt P23308 1-57, looked up)
chain: MKNAKQEHFELDQEWVELMVEAKEANISPEEIRKYLLLNKKSAHPGPAARSHTVNPF
notes: SinI, antagonist of SinR, Bacillus subtilis; sinI gene amplified by PCR with primer pair G6/G7 and cloned into plasmid pC2; also called SinR antagonist SinI; source: E. coli BL21(DE3), purified (ANX ion exchange, size exclusion)
Q: Does B2 bind (SinR^S43A)?
A: binds

Q: Does B2 bind (SinR^A85T)?
A: binds

Q: What about the “percent of SinR-bound DNA released by a 10-fold molar excess of SinI” value (SinR^W104L) of the same binder?
A: ~60%

Q: And the “percent of SinR-bound DNA released by a 10-fold molar excess of SinI” value (SinR^W104R)?
A: ~60%

B3: SinR^K28T (natural protein, B. subtilis)
chain: MIGQRIKQYRKEKGYSLSELAEKAGVATSYLSSIERNLQTNPSIQFLEKVSAVLDVSVHTLLDEKHETEYDGQLDSEWEKLVRDAMTSGVSKKQFREFLDYQKWRKSQKEE
notes: SinR, Bacillus subtilis, with K28T; allele amplified from chromosomal DNA of the suppressor mutant with primer pair G8/G10, cloned in pET24a (NdeI/EcoRI); Spontaneous suppressor allele isolated in the laboratory from a ymdB mutant; source: E. coli BL21(DE3), purified (heparin Sepharose, size exclusion)
Q: With B3 as the binder, how does the “stoichiometry N” value [1] read?
A: 4

Q: For B4, which “stoichiometry N” value [1] is on record?
A: 4

Q: With B5 as the binder, how does the “stoichiometry N” value [1] read?
A: 4

Q: B6 was tested. Which “stoichiometry N” value [1] did it give?
A: 2

Q: How did the “stoichiometry N” value [1] turn out when B7 was run?
A: 2

B8: eps operator inverted-repeat SinR box duplex, 21 bp (FAM1721/C-1723) (dsDNA)
DNA 1: ATTGTTCTCTAAAGAGAACTT
DNA 2: AAGTTCTCTTTAGAGAACAAT
Q: B8 was tested. Which Kd (SinR W104R) did it give?
A: 2580 ± 545 nM

Q: What about the Kd (SinR A85T) of the same binder?
A: 852 ± 39 nM

Q: And the Kd (SinR S43A)?
A: 350 ± 81 nM

Q: What about the Kd (SinR W104L) of the same binder?
A: 1900 ± 298 nM

Q: And the Kd (SinR wild type)?
A: 179 ± 24 nM

Q: Does B8 bind (SinR K28T)?
A: no binding
